Target: TrkC, Q16288
Assay: SPR (BIAlite), receptor amine-coupled on CM4 chip, ligand injected, 25 C
Conditions: remark: other sources report otherwise

Chain of TrkC, Q16288 (Q16288 32-429 limits assumed): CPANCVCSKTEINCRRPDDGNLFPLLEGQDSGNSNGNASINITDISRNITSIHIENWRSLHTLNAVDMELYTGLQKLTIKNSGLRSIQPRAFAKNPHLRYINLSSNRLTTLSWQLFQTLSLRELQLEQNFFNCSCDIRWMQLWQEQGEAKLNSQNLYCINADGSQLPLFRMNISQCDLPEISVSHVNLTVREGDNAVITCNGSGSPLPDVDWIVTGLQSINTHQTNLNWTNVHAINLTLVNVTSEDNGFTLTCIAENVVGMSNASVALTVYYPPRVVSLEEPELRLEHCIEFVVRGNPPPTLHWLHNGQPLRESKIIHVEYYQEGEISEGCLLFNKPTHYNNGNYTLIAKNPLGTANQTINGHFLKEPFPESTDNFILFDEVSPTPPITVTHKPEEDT

B1: BDNF, P23560 129-247 (ligand, UniProt P23560 129-247, looked up)
chain: HSDPARRGELSVCDSISEWVTAADKKTAVDMSGGTVTVLEKVPVSKGQLKQYFYETKCNPMGYTKEGCRGIDKRHWNSQCRTTQSYVRALTMDSKKRIGWRFIRIDTSCVCTLTIKRGR
- Kd: 14 nM

— US20090074779A1
